The values below come from US20040121411.

The subject of data set [1] is radiolabeled βAPP-C83 polypeptide mimic.
Data set [2] has as its system radiolabeled βAPP-C100 polypeptide mimic.

With “solubilized gamma-secretase complex (gamma-secretase associated with PS1) from HeLa cell membranes”, the “cleavage of 35S-labeled substrate, SDS-PAGE and phosphorimager” value in data set [1] was “The radiolabeled βAPP-C83 substrate was also cleaved by the gamma-secretase complexes present in the solubilized protein and protein complex preparation (FIG. 7) and the affinity enriched protein preparation, to yield a 6 kDa cleavage product”; in data set [2] it was “The radiolabeled βAPP-C100 substrate was cleaved by the gamma-secretase complexes present in the solubilized protein and protein complex preparation (FIGS. 6 and 7) and the affinity enriched protein preparation (FIG. 8), to yield a 6 kDa cleavage product”.
